Measurements reported in article PMC4014440.
Positions count from the first letter of the chain named. Names may count otherwise.

B1: PPM-2::GFP R185A (phosphatase trapping mutant of PPM-2) (enzyme)
chain: MGQTLSEPVTKKESASCANENYLVGSSCMQGWRVDMEDAHTHLLSLPDDPKCAFFAVYDGHGGSKVSQYSGINLHKKVVAQKEFSEGNMKEAIEKGFLELDQQMRVDEETKDDVSGTTAVVVLIKEGDVYCGNAGDSRAVSSVVGEARPLSFDHKPSHETEARRIIAAGGWVEFNRVNGNLALSAALGDFAFKNCDTKPAEEQIVTAFPDVITDKLTPDHEFIVLACDGIWDVMTNQEVVDFVREKLAEKRDPQSICEELLTRCLAPDCQMGGLGCDNMTVVLVGLLHGQSPDTLFTKCARPAVFTGVNNEDGDQNQIQQDISRVINNFDGEQRVNAANQEEEEDDNEPAPANFQV
B2: PPM-2::GFP (GFP fusion protein of wild-type PPM-2) (enzyme)
chain: B1 chain with A185R

Target: FLAG epitope tagged DLK-1 K162R (FLAG::DLK-1L K162R) (C. elegans)
Test: co-IP; FLAG::DLK-1 K162R immunoprecipitated from 5 mg of transgenic whole worm lysate (0.1% NP-40 lysis buffer); wild-type or mutant PPM-2::GFP detected by anti-GFP immunoblot; bands quantified with Image J as ratio of PPM-2::GFP in coIP to FLAG::DLK-1 K162R immunoprecipitated

Row | ratio of PPM-2::GFP in coIP to FLAG::DLK-1 K162R immunoprecipitated | Binder
1 | 1.5 | B1
2 | 0.4 | B2
